# Measured values taken from article PMC7430634, “Inactivation of the dimeric RappLS20 anti-repressor of the conjugation operon is mediated by peptide-induced tetramerization” (Nucleic Acids Research, 2020).
# Tests used:
# PlcR = settings: SAXS, 2QFC, ref Declerck et al., 2007 (Suppl. ref 7); cited from earlier work
# [1] = molecular target: PhrF* peptide (Bacillus subtilis) (UniProt P71001); settings: cited from earlier work
# [2] = molecular target: Rap_(pLS20) (Bacillus subtilis plasmid pLS20); assay: SEC; Superdex 200 increase 5/150 GL, 500 mM NaCl, 20 mM TRIS pH 8, 0.2 ml/min; proteins alone (1 mg/ml) and mixtures at 1:2, 1:4, 1:1 and 2:1 (Rco:Rap) incubated 30 min on ice; total protein 0.75–1.25 mg/ml; Phr* at 5:1 over Rap where added
# [3] = molecular target: Rap_(pLS20) (Bacillus subtilis plasmid pLS20); assay: AUC; sedimentation velocity, 4.5 μM Rap_(pLS20) with Phr*_(pLS20) at 4.5 μM or 15 μM; 20 mM Tris, 250 mM NaCl, 10 mM MgCl2, 1 mM EDTA, 0.1 mM β-mercaptoethanol, 1% glycerol, pH 7.4
# [4] = molecular target: Rap_(pLS20) (Bacillus subtilis plasmid pLS20); assay: AUC; sedimentation equilibrium, Rap_(pLS20) (0–15 μM) with Phr*_(pLS20) at 1:3 stoichiometry (Rap:Phr*); same conditions as the SV experiments
# [5] = molecular target: Rap_(pLS20) (Bacillus subtilis plasmid pLS20); assay: SAXS; Rap_(pLS20) at 0.5 to 5 mg/ml with 5-fold molar Phr*_(pLS20); 15 mM HEPES pH 7.5, 150 mM NaCl, 1 mM DTT; 293 K; volume fractions of dimer and foot-2-foot tetramer by OLIGOMER
# [6] = molecular target: Rap_(pLS20) (Bacillus subtilis plasmid pLS20); assay: AUC; sedimentation equilibrium, apo Rap_(pLS20) at 4.5 to 25 μM; same conditions as the SV experiments; 7000 to 10 000 rpm
# [7] = molecular target: Rap_(pLS20) (Bacillus subtilis plasmid pLS20); assay: SAXS; apo Rap_(pLS20) at 0.5 to 5 mg/ml (11.3–113 μM); 15 mM HEPES pH 7.5, 150 mM NaCl, 1 mM DTT; 293 K; volume fractions of dimer and foot-2-foot tetramer by OLIGOMER
# [8] = molecular target: Rap_(pLS20) (Bacillus subtilis plasmid pLS20); assay: AUC; sedimentation velocity, apo Rap_(pLS20) at 4.5 and 25 μM; 20 mM Tris, 250 mM NaCl, 10 mM MgCl2, 1 mM EDTA, 0.1 mM β-mercaptoethanol, 1% glycerol, pH 7.4; 48 000 rpm
# [9] = molecular target: Rco_(pLS20) (Bacillus subtilis plasmid pLS20); assay: SEC; Superdex 200 increase 5/150 GL, 500 mM NaCl, 20 mM TRIS pH 8, 0.2 ml/min; proteins alone (1 mg/ml) and mixtures at 1:2, 1:4, 1:1 and 2:1 (Rco:Rap) incubated 30 min on ice; total protein 0.75–1.25 mg/ml; Phr* at 5:1 over Rap where added
# NprR = NprR and its cognate peptide NprX; cited from earlier work
# [10] = molecular target: Rap_(pLS20) (Bacillus subtilis plasmid pLS20); assay: fluorescence polarisation; equilibrium competition: native Phr*_(pLS20) 0.6–1250 μM against 10 μM Rap_(pLS20) and 50 nM 6-FAM-Phr*_(pLS20); 20 mM Tris pH 7.5, 150 mM NaCl, 1 mM DTT, 0.01% Triton X-100; 25°C
molecule,measurement,setting,value
LPFEF [PapR],oligomerization state of PlcR with peptide,PlcR,tetramers
RapF (from UniProt P71002),Kd,[1],3.1 µM
Rap_(pLS20) (natural protein),stoichiometry N,[2],2
same,stoichiometry N,[3],4
same,stoichiometry N,[4],4
same,percent tetramers above 2.5 mg/ml (57.7 μM) with Phr* (pLS20),[5],100%
same,percent tetramers at 0.5 mg/ml (11.3 μM) with Phr* (pLS20),[5],75%
same,stoichiometry N,[6],2
same,dimer fraction at 0.5 mg/ml (11.3 μM),[7],0.78
same,dimer fraction at 5 mg/ml (0.11 mM),[7],0.48
same,tetramer fraction at 0.5 mg/ml (11.3 μM),[7],0.22
same,tetramer fraction at 5 mg/ml (0.11 mM),[7],0.52
same,percent as a single species (dimer) at 4.5 μM,[8],> 96%
same,percent tetramers at 4.5 μM,[8],1.1%
same,percent tetramers at 25 μM,[8],3.6%
same,stoichiometry N,[8],2
Rco_(pLS20) (natural protein),stoichiometry N,[9],4
"SSKPDIVG [NprX, cognate peptide of NprR, eight amino acids (SSKPDIVG)]",Kd,NprR,0.03 µM
QKGMY [Phr*_(pLS20) peptide (QKGMY)],IC50,[10],26.7 µM
same,Kd,[10],7.42 µM
